In paper doi:10.1101/419911:

How the values were obtained:
AP2M1 160-435 = AP2M1 160-435 (UniProt Q96CW1); assay: isothermal titration calorimetry; conditions: reference: unphosphorylated peptide YMPMS; sites S616
[1] = target: AP2M1 (residues 160-435) (human) (UniProt Q96CW1); assay: ITC

Chain of UniProt Q96CW1 (Q96CW1 160-435): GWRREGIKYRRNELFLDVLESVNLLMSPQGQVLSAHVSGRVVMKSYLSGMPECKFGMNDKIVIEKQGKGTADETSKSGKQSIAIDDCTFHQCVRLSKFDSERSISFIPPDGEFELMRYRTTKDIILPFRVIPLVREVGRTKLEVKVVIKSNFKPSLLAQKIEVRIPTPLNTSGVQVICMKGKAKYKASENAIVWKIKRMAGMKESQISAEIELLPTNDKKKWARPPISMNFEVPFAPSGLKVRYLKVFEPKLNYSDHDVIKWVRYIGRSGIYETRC

KD (AP2M1 160-435) | Kd [1] | Substance
stronger; reference 2.03 µM |  | IRS1 607-620 (from UniProt P35568) YMPMpS peptide (pS-IRS1)
 | 2.03 µM | IRS1 peptide YMPMS (unphosphorylated)
 | 0.28 µM | IRS1 peptide YMPMpS (phospho-S616), pS-IRS1
